The nanobody polyreactivity screen of Harvey et al. (2022)

Assay: yeast display, Sf9 membrane polyspecificity reagent, FACS + sequencing; frameworks hold sequencing errors
Method in brief: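 Galactose induction of a Saccharomyces cerevisiae BJ5465 synthetic nanobody display library ran 36–48 hours. The cells were then stained for 1 hour at 4 °C with 10% biotinylated, detergent-solubilized Sf9 membrane reagent, pulled down on streptavidin microbeads and FACS-sorted into low and high (top ~1%) gates on expression and reagent-binding fluorescence. Labels for polyreactivity follow the gate of origin.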

Sequence	polyreactivity (PSR sort gate)
QVQLVESGGGLVQAGGSLRLSCAASGRTFTRYTMGWYRQAPGKERELVAAISSGGSTTYADSVKGRFTISRDNAKNTVYLQMNSLKPEDTAVYYCAAGLVYRGYRRDYWGQGTQVTVSS	low polyreactivity
QVQLVESGGGLVQPGGSLRLSCAASGYTFWQYAMGWYRQAPGKERELVAAISGSGGRTYYADSVKGRFTISRDNAKNTVYLQMNSLKPEDTAVYYCAAPYLRYYLGWYDYWGQGTQVTVSS	high polyreactivity
QVQLVESGGGLVQAGGSLRLSSAASGFILDTNAMGWYRQAPGKERELVSAITKRGIRTYYADSVKGRFTISRDNAQNTVYLQMNSLKPEDTAVYYCNAQRPIATVWHRYDSWGQGTQVTVSS	high polyreactivity
QVQLVESGGGLFQAGGSLRLSCAASGFIFRDNAMGWYRQAPGKERELVAAISWSSDSTYYADSVKGRFTISRDNEKNTVYLQMNSLNPEDSAVYYCAGKGQRGYWWGFDYWGQGTQVTVSS	low polyreactivity
QVQLVESGGVLVQAGGSLRLSCAASGSIFANNAMGWYRQAPGKERELVATIRSGGTTNYADSVKGRFTISRDNAKNTVYLQMNSLKPEDTAVYYCAVDYVVYADGPLDYWGQGTQVTVSS	low polyreactivity
QVQLVESGGGLVQAGGSLRLSCAASGSIFLIYAMGWYRQAPGKERELVAAISSGGSTYYADSVKGRFTISRDNAKNTVYLQINSLKPEDTAVYYCATYSTSVAYHLYYWGQGTQVTVSS	low polyreactivity
QVQLVESGGGLVQAGGSLRLSCAASGRTFAFNTMGWYRQAPGKERELVDAIRFSAGSTYYADSVKGRFTISRDNAKNTVYLQMNSLKPEDTAVYYCAASYGDRGGWGPGVDYWGQGTQVTVSS	low polyreactivity
QVQLVESGGGLVQAGGSLRLSCAASGRTFYANAMGWSRQAPGRERELVAAISTGGDGTYYADSVKGRFTISRDYAKITVYLQMNSLKPEDTAVYDCAVRHRASGILYYYWGQGTQVTVSS	low polyreactivity
QVQLVESGGGLVQAGGSLRLSCAASGSIFYWYAMGWYRQAPGKERELVAAISSGGSTNYADSVKGRFTISRDNAKNTVYLQMNSLKPEDTSVYYCNADIRSFYCEYYTGLDSWGQGTQVTVSS	low polyreactivity
QVQLVESGGGLVHAGRSLLLSCAASGRTYRLDAMGWYRQSPGKERELVAAITRGGRTNYADSVKGRFTISRDNAKNTFYLQMNSLKPEDTAVYYCADRYVERPTDYYYWGQGTQVTVSS	low polyreactivity
QVQLVESGGGLVQAGGSLRLSSAASGSIFSQYDIGWYRPAPGKERQLVAAISSGGSTYYADSVKGRFTISRYNAKNTVYLQMNSLKPEDTAVYYCAAVYYQITTTHYLHLHYDYWGQGTQVTVSS	low polyreactivity
QVQLVESGGGLVQAGGSLRLSCAASGRTIYTYAMGWYRQAPGKERELVAAITKRGGSTYYADSVKGRFTISRDNAQNTVYLQMNSLKPEDTAVYYCNKELATARGQSLYRTYSGYGYWGQGTQVTVSS	high polyreactivity
QVQLVESGGGLVQAGGSLRLSCAASGFTFNDYAMGWYRQAPGKERELVAAIDWSGGRTYYADSVKGRFTISRDNAKNTVYLQMNSLKPEDTAVYYCATEYYDGYFPTFDYDYWGQGTQVTVSS	low polyreactivity
QVQLVESGGGLVQAGGSLRLSCAASGFTFTRYAMGWYRPAPGKERELVAAISSRGGSTNYADSVKGRFTISRDNAKNTVYLQMNSLKPEDTAVYYCAAVYYRLRYEYDYWGQGTQVTVSS	high polyreactivity
QVQLVESGGGLVQAGGSLRLSCAASGFIFGLYAMGWYRQAPGKERELVAAISWSGGSTYYADSVKGRFTISRDNAKNTVYLQMNSLKPEDTAVYYCAKRGGYGYEYYYWGQGTQVTVSS	high polyreactivity
QVQLVESGGGLVQAGGSLRLSCAASGSIFGYYGMGCYIQAPGKERELVAAISARGGSTYYADSVKGRFTISRDNAKNTVYFQMNRLKPEDTAVYYCAVRYPGSRYLISKNGYWGQGTQVTVSS	high polyreactivity
QDQLVESGGGLVQAGGSLRLSCAASGFIFYDNAMGWYRQAPGKERELVAAISAIGGSTYYADSVKGRFTISRDNAKNTVYLQMNSLKPEDTAVYYCAVPEILDPKYQNDYWGQGTQVTVSS	low polyreactivity
QVQLVESGRGLVQAGGSLRISCAASGITFVFYAMGWYRQAPGKEIELVAAMSWSGGITYYADSVKGRFTISRDNSKNSVYLQMNSLKPEDTAVYYCAATKRQTKYYGGTTDSIRYYWGQGTQVTVSS	low polyreactivity
QVQLVESGGGLVQAGGSLRLSCAASGFTLIHYAMGWYRQAPGKERELVAGITTSGGSTYYADSVKGRFTISRDNAKNTGYLQMNSLKPEDTAVYYCNAEYRRRPKLGDEDEYWGQGTQVTVSS	high polyreactivity
QVQRVESGGGLVQAGGSLRLSCADSGTYGSYAMGWYRQAPGTEREFVAAISASGGSTYYADSVKGRFTISRDNAKNTVYLQMNSLKPEDTAVYYCNKSPRRNRQYDYWGQGSQVTVSS	high polyreactivity
QVQLVESGGGLVQAGGSLRLSCAASGSTFGANAMGWYRQAPGKEREFVAAISRSGVRTYYADSVKGRFTISRDNAKNTVYLKLNSLKPEDTAVYYCAADGYWWTYTRYDYWGQGTQVTVSS	low polyreactivity
